From US20180238915A1 (published 2018) come the findings set out here.

The target in assay [1] is T1, negatively modulated GCSF receptor (GCSFR(-)) (UniProt Q99062 25-621, limits assumed, modified by S-HyNic and conjugated through HyNic-4FB bonds to a 64-base DNA oligonucleotide (SEQ. ID 2, 5' C12 amino modifier); number and sites not stated).
T1 construct: Receptor-oligonucleotide conjugate; Receptor known only by catalogue number; also called nGCSFR; nTPR
T1 sequence (looked up): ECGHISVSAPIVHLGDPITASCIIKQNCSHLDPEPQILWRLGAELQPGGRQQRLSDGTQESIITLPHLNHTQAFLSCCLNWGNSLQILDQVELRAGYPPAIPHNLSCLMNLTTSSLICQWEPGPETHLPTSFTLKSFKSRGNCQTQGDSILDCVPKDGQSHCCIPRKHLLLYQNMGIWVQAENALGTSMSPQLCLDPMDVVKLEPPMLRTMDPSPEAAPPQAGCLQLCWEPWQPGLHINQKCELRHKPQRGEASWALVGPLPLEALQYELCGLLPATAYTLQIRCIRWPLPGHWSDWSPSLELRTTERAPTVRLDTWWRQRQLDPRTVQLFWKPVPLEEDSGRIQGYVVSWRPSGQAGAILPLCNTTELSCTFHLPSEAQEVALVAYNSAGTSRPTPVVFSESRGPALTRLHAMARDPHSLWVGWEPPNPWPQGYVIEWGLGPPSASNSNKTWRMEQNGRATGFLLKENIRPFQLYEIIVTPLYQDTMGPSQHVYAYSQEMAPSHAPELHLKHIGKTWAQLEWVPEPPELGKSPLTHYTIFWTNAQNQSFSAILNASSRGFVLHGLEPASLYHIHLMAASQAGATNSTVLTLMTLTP
Nature of the assay: off-rate by negative MCM and electrokinetic concentration; 100 nM labeled drug, 1 uM negatively modulated receptor. The protocol: The dissociation rate of drug-receptor binding, koff was measured by monitoring the evolution of the peak of complex and fitting it with the aforementioned derived equation.

The target in assay [2] is T2, positively modulated granulocyte colony stimulating factor receptor (pGCSFR) (UniProt Q99062 25-621, limits assumed, C-terminal Lys carries 5-FAM; C-terminal amide (CONH2); N-terminus modified by 6-(BOC-hydrazino)nicotinic acid for conjugation to the receptor; modified by Sulfo-S-4FB and conjugated through a …).
T2 construct: Receptor-peptide conjugate; Receptor known only by catalogue number
T2 sequence: T1 sequence (looked up)
T2 sequence (peptide): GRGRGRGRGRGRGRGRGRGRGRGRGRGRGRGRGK
Briefly: direct assay by positive MCM and electrokinetic concentration; 1 nM pGCSFR, 0-81 nM G-CSF, 30 min incubation, 30 V 15 min. The text has this:
The dose-response curves were plotted by fitting the experimental results with the classic second-order binding model.

B1: labeled G-CSF (Alexa Fluor 488) (ligand, UniProt P09919-2 31-204, looked up)
chain: TPLGPASSLPQSFLLKCLEQVRKIQGDGAALQEKLCATYKLCHPEELVLLGHSLGIPWAPLSSCPSQALQLAGCLSQLHSGLFLYQGLLQALEGISPELGPTLDTLQLDVADFATTIWQQMEELGMAPALQPTQGAMPAFASAFQRRAGGVLVASHLQSFLEVSYRVLRHLAQP
modifications: Alexa Fluor 488 label (carboxylic acid succinimidyl ester); sites not stated
In turn, B1 came in with a dissociative half-life in assay [1] of 5.5 h.

B2: granulocyte colony stimulating factor (G-CSF) (ligand, UniProt P09919-2 31-204, looked up)
chain: B1 chain
notes: Unlabeled Sandoz G-CSF
As a reminder, the Kd is the constant that tells how readily two partners part at equilibrium. High values mean lower affinity, low ones higher affinity. Consider B2, for which, in assay [2], the equilibrium dissociation constant (Kd) is about 0.7 nM.
